Here are results for one molecule from US20020099177A1 (Human Genome Sciences, published 2002).

The assay addresses T1, IL-1 receptor type I (Flag-IL-1RI) (human, UniProt P14778 18-569).
T1 construct: not shown: Flag tag from pCMV-1-Flag expression vector
T1 sequence (looked up): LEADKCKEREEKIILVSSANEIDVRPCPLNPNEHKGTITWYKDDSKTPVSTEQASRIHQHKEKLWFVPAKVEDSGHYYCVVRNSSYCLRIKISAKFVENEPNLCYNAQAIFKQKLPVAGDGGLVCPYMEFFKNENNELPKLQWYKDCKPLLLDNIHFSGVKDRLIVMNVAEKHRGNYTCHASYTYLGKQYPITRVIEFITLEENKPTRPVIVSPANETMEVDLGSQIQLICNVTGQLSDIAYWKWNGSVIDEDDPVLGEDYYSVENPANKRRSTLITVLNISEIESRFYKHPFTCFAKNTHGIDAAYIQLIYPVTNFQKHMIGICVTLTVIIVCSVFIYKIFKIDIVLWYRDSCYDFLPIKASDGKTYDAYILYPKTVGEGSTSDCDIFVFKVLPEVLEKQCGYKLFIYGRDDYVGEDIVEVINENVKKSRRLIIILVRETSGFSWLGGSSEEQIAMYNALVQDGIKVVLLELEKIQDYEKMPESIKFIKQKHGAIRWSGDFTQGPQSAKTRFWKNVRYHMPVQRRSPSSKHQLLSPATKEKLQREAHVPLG
Nature of the assay: coimmunoprecipitation from transfected 293/293T cell lysates. How it is done:
The total amount of DNA was kept constant. 24-36 hours after transfection, cells were lysed in 0.5 ml buffer (1% NP40, 150 mM NaCl, 50 mM Tris, 1 mM EDTA and protease inhibitors cocktail). Cell lysates were adjusted to 0.7 M NaCl and the indicated antibodies were added for 1 to 4 hours. Immune complexes were precipitated by the addition of protein-G-Sepharose (Sigma). After extensive washing, the Sepharose heads were boiled in sample buffer and the eluted proteins fractionated by SDS-PAGE. Subsequent protein immunoblotting was performed as described (Chinnaiyan, A., et al., Cell 81:505-12 (1995)).

B1: IRAK-2 (97-590) (enzyme)
chain: PEIRCPIPAFPDSVKPEKPLAASVRKAEDEQEEGQPVRMATFPGPGSSPARAHQPAFLQPPEEDAPHSLRSDLPTSSDSKDFSTSIPKQEKLLSLAGDSLFWSEADVVQATDDFNQNRKISQGTFADVYRGHRHGKPFVFKKLRETACSSPGSIERFFQAELQICLRCCHPNVLPVLGFCAARQFHSFIYPYMANGSLQDRLQGQGGSEPLPWPQRVSICSGLLCAVEYLHGLEIIHSNVKSSNVLLDQNLTPKLAHPMAHLCPVNKRSKYTMMKTHLLRTSAAYLPEDFIRVGQLTKRVDIFSCGIVLAEVLTGIPAMDNNRSPVYLKDLLLSEIPSSTASLCSRKTGVENVMAKEICQKYLEKGAGRLPEDCAEALATAACLCLRRRNTSLQEVCGSVAAVEERLRGRETLLPWSGLSEGTGSSSNTPEETDDVDNSSLDASSSMSVAPWAGAATPLLPTENGEGRLRVIVGREADSSSEACVGLEPPQDVT
notes: Truncated IRAK-2 lacking the N-terminal domain (DD); also called IRAK-2 (97-590)-MyC; mutant version of IRAK-2 lacking the first 96 amino acid residues; not shown: C-terminal Myc(-His) tag from pCDNA3-MyC-His vector
For the molecule B1, the binding result is “no binding”.
